Experimental findings from PMC10864337 are described below.

The target in experiment [1] is Drp1 Y493A (isoform 1) (human) (UniProt O00429).
The target is the same in experiment [2]. As to the kind of experiment: SEC-MALS; 5 µM Drp1 injected onto a Superose 6 10/300GL column.

As to “Drp1 Y493A (isoform 1) (from UniProt O00429-1 1-736) (natural protein)”, in experiment [1], the GTPase activity (malachite green) with cardiolipin-containing nanotubes; not stimulated was found to be 1.2 min⁻¹. In experiment [2], this substance gave a stoichiometry N of 2.
